Measured values taken from the supplement of paper PMC9170038.

Test system: MS2 coat protein
Experiment: apparent KD of MS2 coat protein; designed switch direction (-1 OFF switch, 1 ON switch): -1; higher = weaker reporter binding
How it was run: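 Normalised cluster fluorescence was curve-fitted, and each design's median over clusters is its apparent KD. Before this, SNAP-549-labelled MS2 coat protein was titrated from 0.7 or 1.5 nM, doubling to 3 µM, over RNA switches transcribed on Illumina chips by stalled E. coli RNA polymerase. Titrations had no input, 200 uM small-molecule ligand, or an oligonucleotide input, and steps lasted 0.8–1.5 h (lowest) to 10–20 min (highest).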

[1] = Eterna round: R95, input ligand: microRNA oligo, concentration not stated
[2] = input ligand: microRNA oligo, concentration not stated
[3] = Eterna round: R95, input ligand: FMN 200 uM
[4] = Eterna round: R95, input ligand: none

AAUAAUAAGGAGGAUAUCGUAUCGGAAACGAUACGAGAAGGUCUAACAUGAGGAUCACCCAUGUUCCUCAAAUA [Mat - Exclusion 6 - Eli Mod - D44] (puzzle: Exclusion 6)
apparent KD of MS2 coat protein [1]: 37.1 nM

GCCGGAUUUGUGAGGAUAUGCCUAUGGAUACAUAGGCAGAAGGCACAUGAGGAUCACCCAUGUUCCUCACCGGC [JL-BMX4-4.24 Eli mod] (Eterna round: R97, puzzle: Brourd's mod of Exclusion 4)
apparent KD of MS2 coat protein (input ligand: FMN 200 uM): 232 nM
apparent KD of MS2 coat protein (input ligand: none): 29.8 nM

GCGCAAACGCCAAAAGGCGAAAUUACAUGAGGAUCACCCAUGUAGGAUAUCGAUUGCUUUGCAGUCGAGAAGGACAUGAUGCGC [JL ENG3 3.80 Mod 1] (Eterna round: R96, puzzle: Exclusion NG 3)
apparent KD of MS2 coat protein [2]: 13.6 nM

AAUUUAAUUAACAAGCUUUACAUGAGGAUCACCCAUGUGAUCAUGCUCGUCUUAGGUACAGGCUUCGGCCUGUACCA [Stov1/6-B1] (Eterna round: R97, puzzle: Sensor, turn-off variant 1)
apparent KD of MS2 coat protein (input ligand: FMN 200 uM): 49.7 nM
apparent KD of MS2 coat protein (input ligand: none): 55.5 nM

GUUGUUGCGCAGGAUAUCCAGCGACUUGUCGAAGGAGAAGGGCGCACAUGAGGAUCACCCAUGUGCCUCUGUAA [EX6 B.20] (Eterna round: R97, puzzle: Exclusion 6)
apparent KD of MS2 coat protein (input ligand: FMN 200 uM): 43 nM
apparent KD of MS2 coat protein (input ligand: none): 18.6 nM

CGAUGUUGUGUCAGGAUAUGCGUUGCGAAAGCAAUGUAGAAGGGACAUGAGGAUCACCCAUGUUCUAACCAUCG [Omei A 9] (puzzle: Brourd's mod of Exclusion 4)
apparent KD of MS2 coat protein [1]: 11.2 nM

UCCCACCGAGGAUAUGACCAUCAGAACAUGAGGAUCACCCAUGUAUUUCUAUGUUCAGAGUCAGAAGGCGGUUUAU [Eternabot (L2) Solution 20] (Eterna round: R97, puzzle: Exclusion 5)
apparent KD of MS2 coat protein (input ligand: FMN 200 uM): 190 nM
apparent KD of MS2 coat protein (input ligand: none): 72.4 nM

UUUGUUUAUGUGAGGAUAUACUGUUUGUUUUGUUUGUAGAAGGUACAUGAGGAUCACCCAUGUUUUGUAUUUAU [JR_BME4_Sub034] (puzzle: Brourd's mod of Exclusion 4)
apparent KD of MS2 coat protein [1]: 18.4 nM

GAUCUGACAGGAUAUACAUGAGGAUCACCCAUGUGCGAGCUAGCGAAAGCUAGCUUAGGUAGAAGGGUCAGAUC [Ex3 dot plot directed v3] (puzzle: Exclusion 3)
apparent KD of MS2 coat protein [1]: 10.7 nM

ACAUCACAGCUAGGAUAUAGAUGACAUGAGGAUCACCCAUGUUAUCCCAUGUUGACGAAAACCGACUAGAAGGAGCUACAGAUG [Ex NG2 #6] (Eterna round: R96, puzzle: Exclusion NG 2)
apparent KD of MS2 coat protein (input ligand: FMN 200 uM): 101 nM
apparent KD of MS2 coat protein [2]: 40.2 nM
apparent KD of MS2 coat protein (input ligand: none): 63.7 nM

GUUUUCAGACGGAGAUCCUACAUGAGGAUCACCCAUGUCUCUCUUGUUUUUUGCUCGUCUUUUCCUCCUCUGUUCUC [Elimod 32 - Jieux - Sensor, turn-off variant 1] (Eterna round: R97, puzzle: Sensor, turn-off variant 1)
apparent KD of MS2 coat protein (input ligand: FMN 200 uM): 447 nM
apparent KD of MS2 coat protein (input ligand: none): 515 nM

AAAUCGAGACGGAGAUCCGACAUGAGGAUCACCCAUGUCUCGUAAGCUUUUUGCUCGUCUUAUACUCCUCUGUUCUC [Elimod 50 - Jieux - Sensor, turn-off variant 1] (Eterna round: R97, puzzle: Sensor, turn-off variant 1)
apparent KD of MS2 coat protein (input ligand: FMN 200 uM): 22.5 nM
apparent KD of MS2 coat protein (input ligand: none): 22.4 nM

ACAUGAGGAUCACCCAUGUGCACGUAAUGGCUCAUGUAGAGUCAGGAUAUGCGUGGCGAACUCGCGCAGAAGGGACAAGACUGG [Deportation 20 - Jieux - Exclusion NG 3] (Eterna round: R96, puzzle: Exclusion NG 3)
apparent KD of MS2 coat protein (input ligand: FMN 200 uM): 23.5 nM
apparent KD of MS2 coat protein [2]: 25.6 nM
apparent KD of MS2 coat protein (input ligand: none): 34.6 nM

GGCCCUAAGGUCAGAUUCACAAGCUUUUUGCUCGUUUUAACAUGAGGAUCACCCAUGUCUAGUGGAUUUGAUCCUUU [Sensor v3, turn-off variant 2 (MOD of Indiso v.6)] (puzzle: Sensor v3, turn-off variant 2)
apparent KD of MS2 coat protein [3]: 28.6 nM
apparent KD of MS2 coat protein [1]: 25.4 nM
apparent KD of MS2 coat protein [4]: 34.2 nM

CGGUGACGGGUGAGGAUAUCGUGUUCGAAAGAACGUGAGAAGGCACAUGAGGAUCACCCAUGUGAUCCUCAUCG [Omei Ex4B A31] (Eterna round: R97, puzzle: Brourd's mod of Exclusion 4)
apparent KD of MS2 coat protein (input ligand: FMN 200 uM): 412 nM
apparent KD of MS2 coat protein (input ligand: none): 56.1 nM

CAUACACAUGAGGAUCACCCAUGUGAGGAUAUGAAUACGUUGUCCGUAGGCGACGUGAUCAGAAGGCGCUUGGU [Mat - Mod of JL D100] (puzzle: Exclusion 1)
apparent KD of MS2 coat protein [1]: 44 nM

UACAUGAGGAUCACCCAUGUUUUGUCGUGUAUGGUACCCAUCUAGGAUAUCGUGUUAUUUAACCACGAGAAGGAGAGUAUCAAU [MOD4 Solution 21 by JMF] (Eterna round: R96, puzzle: Exclusion NG 3)
apparent KD of MS2 coat protein (input ligand: FMN 200 uM): 22.4 nM
apparent KD of MS2 coat protein [2]: 13 nM
apparent KD of MS2 coat protein (input ligand: none): 21.8 nM

GGAAAUCAUGUAGGAUAUGCGUGGCGAAGCUAUGCAGAAGGACAUGAGGAUCACCCAUGUGCUUCCGUCUGCGUACAGACGGAA [Mat - Exclusion NG 1 - Mod of JL - D20] (Eterna round: R96, puzzle: Exclusion NG 1)
apparent KD of MS2 coat protein (input ligand: FMN 200 uM): 32.3 nM
apparent KD of MS2 coat protein [2]: 77.9 nM
apparent KD of MS2 coat protein (input ligand: none): 186 nM

AGUCAGGCGGUAGGAUAUCCAAAUCGAGUGACCCUUUCAUAACAUGAGGAUCACCCAUGUCGGUGGGAGAAGGGCCGUACGGCG [JL ViennaUCT Atra mod 3] (Eterna round: R96, puzzle: Exclusion NG 2)
apparent KD of MS2 coat protein (input ligand: FMN 200 uM): 232 nM
apparent KD of MS2 coat protein [2]: 88 nM
apparent KD of MS2 coat protein (input ligand: none): 104 nM

ACAAGCGUUAAGGAUAUACUGCCCUCAUUCUCGGUAGAAGGUAACACUUGAGGAUCACCCAAGUGAAAACCUGA [Erxeesis] (Eterna round: R97, puzzle: Exclusion 6)
apparent KD of MS2 coat protein (input ligand: FMN 200 uM): 10.6 nM
apparent KD of MS2 coat protein (input ligand: none): 9.67 nM

CGGGCCGGCCUUCCGGCCGGCCCGACAUGAGGAUCACCCAUGUAGGAUAUCCCGGCUGCCGGCCGGGAGAAGGGCGUGCGUCCU [-50.4, -49.5 kcal, 14% A] (Eterna round: R96, puzzle: Exclusion NG 3)
apparent KD of MS2 coat protein (input ligand: FMN 200 uM): 101 nM
apparent KD of MS2 coat protein [2]: 53.6 nM
apparent KD of MS2 coat protein (input ligand: none): 91.6 nM

UUAAUGUGAGGAUAUCAAGAGAGAAAGAGUAAUGGUAAAUAUGAGAAGGCACAUGAGGAUCACCCAUGUUCUUC [Mat - Exclusion 4 - Mod of JL - D60] (puzzle: Exclusion 4)
apparent KD of MS2 coat protein [1]: 14.2 nM

AUAAAGAAUGUUAGGAUAUUGGUGAAUAGGCUGACUAAGAAGGAACAUGAGGAUCACCCAUGUAAAAUGGAAAA [Readima] (puzzle: Brourd's mod of Exclusion 4)
apparent KD of MS2 coat protein [3]: 66.7 nM
apparent KD of MS2 coat protein [1]: 23 nM
apparent KD of MS2 coat protein [4]: 29.1 nM

UCACAAGCUGUGGGUGGUGACAUGAGGAUCACCCAUGUUUUGCUCGUCUUGUGCCGGGCCCGGCGCCCGGGCCCGGC [-42.1, -69.5, A 12%] (Eterna round: R97, puzzle: Sensor, turn-off variant 1)
apparent KD of MS2 coat protein (input ligand: FMN 200 uM): 929 nM

CUCAUGCCUGAGGAUAUGCUGUACAAAAGUACUGCAGAAGGCGGGACAUGAGGAUCACCCAUGUGGCGAAAGCC [Omei Ex G8] (Eterna round: R97, puzzle: Exclusion 6)
apparent KD of MS2 coat protein (input ligand: FMN 200 uM): 78.7 nM
apparent KD of MS2 coat protein (input ligand: none): 519 nM

UUUAGUUCAGGAUAUGUAGAUUUUAACAUGAGGAUCACCCAUGUCGAUCCUGAAUUAACUACAGAAGGGAACAUUU [Mod of Brourd 4 - Jieux - Exclusion 5] (Eterna round: R97, puzzle: Exclusion 5)
apparent KD of MS2 coat protein (input ligand: FMN 200 uM): 64 nM
apparent KD of MS2 coat protein (input ligand: none): 18.8 nM

AGUACUAACACGUGUGUGUUAGUACAAUAAGCUUGUGAAACAUGAGGAUCACCCAUGUCCUCAUAAGCUCGUCUUAU [salish99_TOv2_r3_074] (puzzle: Sensor v3, turn-off variant 2)
apparent KD of MS2 coat protein [3]: 16.1 nM
apparent KD of MS2 coat protein [1]: 813 nM
apparent KD of MS2 coat protein [4]: 15 nM

UGUUGUUGCGUAGGAUAUUGCCAACAGGCAGUAGGAUAUGCGAAAGCAGAAGGACCGCCAACAGGCGAGAAGGACGGGACAACU [pwkr exNG2 2xF7 2xFMN.13] (Eterna round: R96, puzzle: Exclusion NG 2)
apparent KD of MS2 coat protein (input ligand: FMN 200 uM): 177 nM
apparent KD of MS2 coat protein [2]: 39.4 nM
apparent KD of MS2 coat protein (input ligand: none): 72.6 nM

ACAAGCUUUUUGUUCGUCUUAUAAUAAUAAAUAAAUAUAACAUGAGGAUCACCCAUGUUGAGAAGACAACCUCAUGU [Sesor Array 24 - Jieux - Sensor v3, turn-off variant 2] (puzzle: Sensor v3, turn-off variant 2)
apparent KD of MS2 coat protein [3]: 242 nM
apparent KD of MS2 coat protein [1]: 108 nM
apparent KD of MS2 coat protein [4]: 420 nM

CUAUGCAAAGUAAGGAUAUGCUUCCGGAAACGGAGGCAGAAGGUACAUGAGGAUCACCCAUGUUAAACGCAUAG [Explosion 4 - Jieux - Brourd's mod of Exclusion 4] (Eterna round: R97, puzzle: Brourd's mod of Exclusion 4)
apparent KD of MS2 coat protein (input ligand: FMN 200 uM): 16.8 nM
apparent KD of MS2 coat protein (input ligand: none): 12.8 nM

GGUGAGCUAGGAUAUGCUUUGGGAAAGCAUUCCUUCGAUAAACUUGAGGAUCACCCAAGUAGAAGGAGCUUGCC [salish99_ex2_r4_019] (Eterna round: R97, puzzle: Exclusion 2)
apparent KD of MS2 coat protein (input ligand: FMN 200 uM): 18.7 nM
apparent KD of MS2 coat protein (input ligand: none): 11.9 nM

AGGUAACAUGAGGAUCACCCAUGUCAGGAUAUCAUAAAGAUUAGAUUAGAGAAGAGGUUGAGAAGGGACUAUAU [Excluse me! 17- Jieux - Exclusion 1] (puzzle: Exclusion 1)
apparent KD of MS2 coat protein [1]: 41.9 nM

AAACUGAGGCUUUGCUUUAGUCGUACAUGAGGAUCACCCAUGUAGGAUAUGGUAGGCUUUGCUUACCAGAAGGACAGAGUGAUC [JL EXNG3 1.20] (Eterna round: R96, puzzle: Exclusion NG 3)
apparent KD of MS2 coat protein (input ligand: FMN 200 uM): 80.5 nM
apparent KD of MS2 coat protein [2]: 404 nM
apparent KD of MS2 coat protein (input ligand: none): 279 nM
